The results in this text go back to PMC9251887.

This test deals with GFP-Joka2 (tomato (SlJoka2)). The experiment in a line: FRET or BRET; FRET-FLIM in N. benthamiana leaves; donor GFP-Joka2, acceptors RFP fusions; GFP lifetime measured in GFP-JOKA2 aggregates. On the technique in general: Bioluminescence resonance energy transfer reports proximity on the nanometre scale.

In the case of RFP-XopL (natural protein), the reduction of the donor's fluorescence lifetime stood at 0.1 ns.
